What was measured:
Conditions in all cases: both partners purified
[1] = biological target: T1, EloBC (elongin B - elongin C heterodimer) (UniProt Q15370 1-118; Q15369 16-111); assay: ITC
T1 construct: also called EloB-EloC heterodimer; full length EloBC

[2] = biological target: T1, EloBC (elongin B - elongin C …); assay: SEC
[3] = biological target: T1, EloBC (elongin B - elongin C …); assay: NMR titration

T1 sequence (Q15370 whole entry, chain 1 of 2): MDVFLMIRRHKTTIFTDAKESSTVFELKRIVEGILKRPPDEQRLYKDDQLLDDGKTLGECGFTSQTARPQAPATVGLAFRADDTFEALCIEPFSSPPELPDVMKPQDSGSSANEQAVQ
T1 sequence (Q15369 16-111, chain 2 of 2): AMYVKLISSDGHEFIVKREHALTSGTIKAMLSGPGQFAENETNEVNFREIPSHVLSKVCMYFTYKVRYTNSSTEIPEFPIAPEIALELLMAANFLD

Row | Binder | Kd [1] | stoichiometry N [2] | KD fitted to the peak of EloB Asp-101 [3] | KD fitted to the peak of EloB Lys-104 [3] | KD fitted to the peak of EloB Met-103 [3] | KD fitted to the peak of EloB Val-102 [3]
1 | wild type Vif SOCS-box protein (domain or fragment, source: E. coli BL21(DE3), purified (Ni-NTA, Superdex 75)) not shown | 1200 nM | 1 | 1710 nM | 3560 nM | 1730 nM | 430 nM
2 | HNKVGSLQYLALAALITPKKIKAAAPSVTKLTEDRWNK (domain or fragment, source: E. coli BL21(DE3), purified (Ni-NTA, Superdex 75)) [ΔPPL Vif SOCS-box protein] | 1250 nM | – | – | – | – | –

Source: paper PMC2880568 (PLoS Pathogens, 2010)
